Values quoted from earlier work, collected in publication PMC5023690.

Key:
[1] = biological target: ONE-GC M836-C1110 (Rattus norvegicus) (UniProt P51839); experiment: SPR; given as Ka
[2] = biological target: ONE-GC M836-C1110 (Rattus norvegicus) (UniProt P51839); experiment: SPR

UniProt P51839, sequence (P51839 836-1110): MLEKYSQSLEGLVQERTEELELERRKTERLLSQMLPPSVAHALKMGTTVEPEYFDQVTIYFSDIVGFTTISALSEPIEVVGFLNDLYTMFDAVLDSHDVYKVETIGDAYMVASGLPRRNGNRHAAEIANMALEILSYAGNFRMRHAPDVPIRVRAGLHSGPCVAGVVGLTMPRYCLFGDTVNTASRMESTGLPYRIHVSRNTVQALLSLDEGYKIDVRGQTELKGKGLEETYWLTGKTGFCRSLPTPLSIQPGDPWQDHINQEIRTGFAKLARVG

Kd [1]: 0.426 µM | Kd [2]: 0.43 µM
Substance: Frq (frequenin) (from UniProt P62166)
